In patent US20200055939A1 (Genentech, published 2020):
Substitutions are numbered along the chain they refer to.

B1: 15F11v1 (antibody, IgG1, V domains shown)
VH: EVQLVQSGAEVKKPGASVKVSCKASGYAFTSNNIYWVRQAPGQGLEWIGYIDPYIGRIIYNQQFKDRVTITADTSTSTAYLELSSLRSEDTAVYYCSRSGERSNFDYWGQGTLVTVSS
VL: EIVLTQSPATLSLSPGERATLSCSASSSISSNYLHWYQQKPGQAPRLLIYRTSNLASGIPARFSGSGSGTDFTLTISSLEPEDFAVYYCQQGGSLPLTFGQGTKVEIK
notes: humanized variant of 15F11
B2: 15F11v5 (antibody, IgG1, V domains shown)
VH: B1 VH with V2I, A16S, A24P, V68A, I70L, A72V, T74K, L81M
VL: B1 VL
notes: humanized variant of 15F11
B3: 15F11v6 (antibody, IgG1, V domains shown)
VH: B1 VH with V2I, A16S, A24P, V68A, I70L, A72V, T74K, L81M
VL: B1 VL with A44S, I59V, F72Y
notes: humanized variant of 15F11
B4: 15F11v4 (antibody, IgG1, V domains shown)
VH: B1 VH with V2I, A24P, V68A, I70L, A72V, T74K
VL: B1 VL with A44S, I59V, F72Y
notes: humanized variant of 15F11
B5: 15F11v3 (antibody, IgG1, V domains shown)
VH: B1 VH
VL: B1 VL with A44S, I59V, F72Y
notes: humanized variant of 15F11
B6: 6E1.1.12 (antibody, V domains shown)
VH: QGQMQQSGAELVKPGASVKLSCKTSGFTFSDNYISWLKQKPGQSLEWIAWIYAGTGGSSYNQKFRDKAQLTVDTSSRTAYMQLSSLTTEDSAIYYCARHDYYGTSGAWFAYWGRGTLVTVSA
VL: DVLMTQTPLSLPVSLGDQASISCRSSQHIVHSNENTYLEWYLQKPGQSPKLLIYKVSNRFSGVPDRFSGSGSGTDFTLKISRVEAEDLGVYYCFQGSHVPWTFGGGTKVEIK
notes: mouse variable domains
B7: 6F8.7 (antibody, V domains shown)
VH: DVQLQGSGPGLVKPSQSLSLTCSVTGYSITNDYYWNWIRQFPGNKLEWMGFISFGGSNNYNPSLKNRISITRDTSKNQFFLKLSSVTTEDTATYYCARYDGRGAWFAYWAQGTLVTVSA
VL: DIQMTQSPASLSASVGETVTITCRASGNIHNYLAWYQQKQGKSPQLLVYDAITLADGVPSRFSGSGSGTQYSLKINSLQPEDFGNYYCQHFWSFPLTFGAGTKVEIK
notes: Mouse hybridoma antibody; constant regions differ by assay
B8: 3E11 (antibody, V domains shown)
VH: EIQLQQSGPELVKPGASVKVSCTASGYAFTKYNIYWVKQSHGKSLEWIGYIDPYTGGTISNQKFTGRATLTVDKSSSTAYLHLNSLTSEDSAVYYCARPGSYWYFGVWGAGTTVTVSS
VL: B6 VL with V2I, H28S, H31Y, S32T, E34G, Y37N, G96A, H98Y, W101F, G105S
notes: as for B7
B9: 3C9.10 (antibody, V domains shown)
VH: QVQLKESGPGLVAPSQSLSITCTVSGFSLTGSGVNWVRQPPGKGLEWLGMIWGDGNTDYNSALKSRLSISKDNSKSQIFLKMNSLQTDDTARYYCARGAYYGKRWYFDVWGAGTTVTVSS
VL: DIQMTQTTSSLSASLGDRVTISCSASQGISNYLNWYQQKPDGTVKLLIYYTSSLHSGVPSRFSGSGSGTDYSLTISNLEPEDIATYYCQQYSKLPPTFGGGTKVEIK
notes: Mouse hybridoma antibody; constant regions differ by assay (hybridoma mouse IgG, recombinant human IgG1 or mouse IgG2a)
B10: 9C9.5.6 (antibody, V domains shown)
VH: B9 VH with T30N, S32Q, N56S, K75R, I78V, Y100H
VL: B9 VL with G28N, S30N, D41H, H55P, T85S
notes: as for B7
Throughout, for % Inhibition: test concentration or dose not given here.

Target: T1, huMICA*004 alpha 3-his (human)
T1 construct: whole construct entry: GS, alpha 3 domain, GNS, His8; also called MICA004.His; MICA*004 alpha3 construct
T1 chain: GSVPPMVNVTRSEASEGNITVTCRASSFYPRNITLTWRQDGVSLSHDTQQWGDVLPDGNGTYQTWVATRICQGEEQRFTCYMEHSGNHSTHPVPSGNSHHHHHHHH
Experiment: SPR, Biacore 8K, antibody on Protein A chip
For B1, the Kd was 5.96 nM.
In the case of B2, the Kd is reported as 3.11 nM.
Binder B3 has a Kd of 2.91 nM.
Binder B4 has a Kd of 2.58 nM.
B5 showed a Kd of 5.7 nM.
With B6 the Kd was 3.95 nM.

Target: T2, huMICB*005 alpha 3-his (human)
T2 construct: whole construct entry: GS, alpha 3 domain, GNS, His8; also called MICB005.His; MICB*005 alpha3 construct
T2 chain: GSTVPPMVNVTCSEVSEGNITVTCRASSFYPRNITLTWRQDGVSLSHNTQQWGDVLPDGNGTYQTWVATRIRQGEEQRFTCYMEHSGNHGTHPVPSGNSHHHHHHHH
Experiment: SPR, Biacore 8K, antibody on Protein A chip
Work on B1 yielded a Kd of 16.1 nM.
B2 gave a Kd of 7.8 nM.
With B3 the Kd was 6.62 nM.
Work on B4 yielded a Kd of 5.72 nM.
B5 gave a Kd of 14.1 nM.
With B6 the Kd was 2.96 nM.

Target: T3, huMICA*002 alpha 3-his (human)
T3 construct: whole construct entry: GS, alpha 3 domain, GNS, His8; also called MICA002.His; MICA*002 alpha3 construct
T3 chain: T2 chain with C12R, V15A, S28G, R32W, T37S, N48D, R72C, G90S
Experiment: SPR, Biacore 8K, antibody on Protein A chip
B1 gave a Kd of 12.8 nM.
With B2 the Kd was 6.05 nM.
Binder B3 has a Kd of 5.47 nM.
B4 gave a Kd of 4.75 nM.
B5 gave a Kd of 12.7 nM.
In the case of B6, the Kd is reported as 1.49 nM.

Target: T4, huMICA*008 alpha 3-his (human)
T4 construct: whole construct entry: GS, alpha 3 domain (Thr204-Ser297), GNS, His8; also the construct of the FPOP experiment; also called MICA008.His; MICA*008 alpha3 construct
T4 chain: T2 chain with C12R, V15A, T35I, N48D, R72C, Q73R, G90S
Experiment: SPR, Biacore 8K, antibody on Protein A chip
B1 was tested, and the Kd was 6.52 nM.
With B2 the Kd was 3.2 nM.
Work on B3 yielded a Kd of 2.94 nM.
For B4, the Kd was 2.58 nM.
B5 gave a Kd of 5.56 nM.
B6 showed a Kd of 3.72 nM.

Target: T5, MICA004.His (human MICA*004 alpha 3 domain, His tagged) (human)
T5 construct: also called huMICA*004 alpha 3-his
T5 chain: T1 chain
Experiment: SPR, antibody captured;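 note: SPR with antibody held by surface-bound anti-Fc while His-tagged alpha three domains flow over, Kd derived by fitting a one-to-one binding model to sensograms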
Binder B7 has a Kd of 6.2 nM.
B8 gave a Kd of 5 nM.

Target: T6, MICA002.His (human MICA*002 alpha 3 domain, His tagged) (human)
T6 construct: also called huMICA*002 alpha 3-his
T6 chain: T2 chain with C12R, V15A, S28G, R32W, T37S, N48D, R72C, G90S
Experiment: SPR, antibody captured;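 note: SPR with antibody held by surface-bound anti-Fc while His-tagged alpha three domains flow over, Kd derived by fitting a one-to-one binding model to sensograms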
B7 showed a Kd of 2.4 nM.
B8 showed a Kd of 7.7 nM.

Target: T7, MICB005.His (human MICB*005 alpha 3 domain, His tagged) (human)
T7 construct: also called huMICB*005 alpha 3-his
T7 chain: T2 chain
Experiment: SPR, antibody captured;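 note: SPR with antibody held by surface-bound anti-Fc while His-tagged alpha three domains flow over, Kd derived by fitting a one-to-one binding model to sensograms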
Binder B7 has a Kd of 14.5 nM.
B8 gave a Kd of 6.8 nM.
With B9 the Kd was 45 nM.
In the case of B10, the Kd is reported as 11 nM.

Target: T8, MICA008.His (human MICA*008 alpha 3 domain, His tagged) (human)
T8 construct: Also used for FPOP (expressed in CHO); also called huMICA*008 alpha 3-his; MICA*008 a3
T8 chain: T2 chain with C12R, V15A, T35I, N48D, R72C, Q73R, G90S
Experiment: SPR, antibody captured;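 note: SPR with antibody held by surface-bound anti-Fc while His-tagged alpha three domains flow over, Kd derived by fitting a one-to-one binding model to sensograms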
In the case of B7, the Kd is reported as 8.4 nM.
B8 showed a Kd of 2.5 nM.

Target: T9, MICA.008.a3.T204-S297.H248N.mIgG2a.Glyco15 (human; mouse, UniProt Q29983 204-297, engineered N-linked glycosylation site H248N)
T9 construct: not shown: murine IgG2a Fc
T9 chain: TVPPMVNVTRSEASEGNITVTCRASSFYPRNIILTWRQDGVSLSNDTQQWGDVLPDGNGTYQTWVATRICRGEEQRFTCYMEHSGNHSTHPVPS
Experiment: ELISA, coated variant;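 note: ELISA with plates coated at 2 ug/ml with MICA*008 alpha 3 glycosylation variants as murine IgG2a Fc fusions, antibody binding detected by HRP anti-human IgG Fc and TMB absorbance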
B7: binds.
B8: binds.

Target: T10, MICA.008.a3.T204-S297.I236T.mIgG2a.Glyco13 (human; mouse, UniProt Q29983 204-297, engineered N-linked glycosylation site created by I236T)
T10 construct: not shown: murine IgG2a Fc
T10 chain: T9 chain with I33T, N45H
Experiment: ELISA, coated variant;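 note: ELISA with plates coated at 2 ug/ml with MICA*008 alpha 3 glycosylation variants as murine IgG2a Fc fusions, antibody binding detected by HRP anti-human IgG Fc and TMB absorbance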
B7: binds.
B8: binds.

Target: T11, MICA.008.a3.R202-S297.R202N mIgG2a.Glyco11 (human; mouse, UniProt Q29983 203-297, engineered N-linked glycosylation site R202N)
T11 construct: not shown: murine IgG2a Fc
T11 chain: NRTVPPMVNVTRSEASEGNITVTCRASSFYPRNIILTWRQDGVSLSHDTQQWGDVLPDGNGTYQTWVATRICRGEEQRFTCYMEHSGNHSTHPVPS
Experiment: ELISA, coated variant;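 note: ELISA with plates coated at 2 ug/ml with MICA*008 alpha 3 glycosylation variants as murine IgG2a Fc fusions, antibody binding detected by HRP anti-human IgG Fc and TMB absorbance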
B7: binds.
B8: binds.

Target: T12, MICA.008.a3.T204-S297.C-terminal insert of N298.G299.S300.mIgG2a.Glyco17 (human; mouse, UniProt Q29983 204-297, engineered N-linked glycosylation site at inserted N298)
T12 construct: not shown: murine IgG2a Fc
T12 chain: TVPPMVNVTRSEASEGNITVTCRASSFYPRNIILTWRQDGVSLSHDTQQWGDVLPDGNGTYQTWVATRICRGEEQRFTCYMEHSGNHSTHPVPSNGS
Experiment: ELISA, coated variant;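 note: ELISA with plates coated at 2 ug/ml with MICA*008 alpha 3 glycosylation variants as murine IgG2a Fc fusions, antibody binding detected by HRP anti-human IgG Fc and TMB absorbance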
B7: binds.
B8: binds.

Target: T13, MICA.008.a3.T204-S297.E215N.mIgG2a.Glyco12 (human; mouse, UniProt Q29983 204-297, engineered N-linked glycosylation site E215N)
T13 construct: not shown: murine IgG2a Fc
T13 chain: T9 chain with E12N, N45H
Experiment: ELISA, coated variant
B7: binds.
B8: binds.

Target: T14, MICA*008 on MEL-JUSO cells (human, UniProt Q29983 24-317)
T14 chain: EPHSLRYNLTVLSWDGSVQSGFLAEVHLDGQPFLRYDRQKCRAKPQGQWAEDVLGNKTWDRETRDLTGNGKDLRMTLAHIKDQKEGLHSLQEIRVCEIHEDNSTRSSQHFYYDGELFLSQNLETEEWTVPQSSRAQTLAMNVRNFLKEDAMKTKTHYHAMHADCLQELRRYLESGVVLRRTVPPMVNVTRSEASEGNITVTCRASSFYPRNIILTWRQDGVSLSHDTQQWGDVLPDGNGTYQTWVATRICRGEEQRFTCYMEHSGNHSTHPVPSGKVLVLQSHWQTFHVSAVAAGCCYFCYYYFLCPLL
Experiment: cell-based or functional assay
For B1, the “% Inhibition” value was 4%.
For B2, the “% Inhibition” value was 62%.
For B3, the “% Inhibition” value was -8%.
With B4 the “% Inhibition” value was -19%.
In the case of B5, the “% Inhibition” value is reported as 50%.
With B6 the “% Inhibition” value was 31%.

The binders below were run against MICB*005 on HCC1534 cells (human) (assay: cell-based or functional assay).
In the case of B1, the “% Inhibition” value is reported as 43%.
In the case of B2, the “% Inhibition” value is reported as -35%.
For B3, the “% Inhibition” value was 59%.
B4 was tested, and the “% Inhibition” value was 44%.
With B5 the “% Inhibition” value was -49%.
B6 was tested, and the “% Inhibition” value was 58%.

The binders below were run against MICA*004 on HCC1534 cells (human, UniProt Q29983 24-383) (assay: cell-based or functional assay).
For B1, the “% Inhibition” value was 3%.
In the case of B2, the “% Inhibition” value is reported as 46%.
For B3, the “% Inhibition” value was -14%.
With B4 the “% Inhibition” value was -34%.
With B5 the “% Inhibition” value was 39%.
For B6, the “% Inhibition” value was 34%.

Target: T15, MICA*008 on MEL-JUSO cells (human, UniProt Q29983 24-317)
T15 chain: T14 chain
Experiment: cell-based or functional assay
B7 was tested, and the “% max inhibition of shedding” value was 47.5% and the “EC50 of shedding inhibition” value was 0.163 µg/mL.
In the case of B8, the “% max inhibition of shedding” value is reported as 70% and the “EC50 of shedding inhibition” value is reported as 0.265 µg/mL.
With B9 the “% max inhibition of shedding” value was < 10%.
With B10 the “% max inhibition of shedding” value was < 10%.

Target: MICA*004 on HCC1534 cells (human, UniProt Q29983 24-383)
Experiment: cell-based or functional assay
Remark: another data set of the same source
For B7, the “% max inhibition of shedding” value was 70% and the “EC50 of shedding inhibition” value was 0.251 µg/mL.
B8 was tested, and the “% max inhibition of shedding” value was 55% and the “EC50 of shedding inhibition” value was 0.309 µg/mL.
For B9, the “% max inhibition of shedding” value was 24% and the “EC50 of shedding inhibition” value was 50 µg/mL.
For B10, the “% max inhibition of shedding” value was 44% and the “EC50 of shedding inhibition” value was 3.18 µg/mL.
